± gives the standard deviation of the averaged measurements.
System: Saccharomyces cerevisiae
Assay: protein stability index of tFT-peptide fusion (C-terminal peptide) (PSI (0-1 scale)); higher = more stable (slower turnover)
Details: genetic background: wild type; temperature: 30 C
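Also: PSI is a weighted mean of sequencing reads over stability bins, variants kept only with over 10 reads, mCherry proximal and sfGFP distal, peptide attached via GGGS linker.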

Sequence	protein stability index
ALSSVPPCSLPP	0.637 ± 0.016
GVRSGAGGQVVG	0.701 ± 0.038
VGFSAFSDSFFV	0.7224 ± 0.0046
FRPPFRSAPLSP	0.679 ± 0.051
PPPPHPPPSLRA	0.67716 ± 6e-05
HEDIPGSTYTIN	0.734 ± 0.033
CDRVAQWTYPDA	0.783 ± 0.084
RCLGVCRAESLP	0.682 ± 0.034
LEPGSYRKRKPP	0.587 ± 0.023
LVCLWQGSSVLI	0.671 ± 0.023
PYSCPPGCRSVL	0.6894 ± 0.0043
NAFTMWVSRQAR	0.77 ± 0.02
VTLWGFFRVLSL	0.686 ± 0.043
GGPHYVYPFCSF	0.699 ± 0.019
GGRDVGEMVDLQ	0.758 ± 0.14
GGVLGRRLLGGR	0.64 ± 0.051
PSWEPLPLPAVL	0.707 ± 0.018
RSTVFCSTFVHD	0.672 ± 0.014
LRLPSPLPSPPS	0.6283 ± 0.0034
PPPPPLHSSPWL	0.737 ± 0.14
LRGKLGNCLGLL	0.733 ± 0.028
LADFGREKNSLG	0.703 ± 0.0068
HHHPGQKCKIKG	0.731 ± 0.016
LSLFFSSFLITF	0.628 ± 0.12
CPCRCLGFRWCF	0.631 ± 0.076
AVTWSRPRSARM	0.736 ± 0.0041

Sequence	protein stability index
YFTNSVPVGTVA	0.501 ± 0.0076
KRGKKNEESRRD	0.68 ± 0.085
SNLYNNQEQDHT	0.723 ± 0.058
FLPFFFCLPSSL	0.628 ± 0.014
SAMSFTSRGVRH	0.698 ± 0.011
AFWYACMSLHRS	0.728 ± 0.07
FGSRTFVTIAAG	0.57 ± 0.056
PPSPLPPTPSHS	0.737 ± 0.076
RKCHCPGGGRRI	0.7171 ± 0.00079
YRKAAGSQDRAV	0.663 ± 0.018
IPDSSPIVPHPK	0.6722 ± 0.0065
GSSPRVFPPRFC	0.725 ± 0.033
CCLFCLLWSLLY	0.64 ± 0.0067
KYKVGLWHRVAK	0.68 ± 0.16
KKGKGKTETIKT	0.695 ± 0.03
WYVALGRFVGGS	0.678 ± 0.049
DGWVAVGRALGG	0.704 ± 0.028
PPPPASPPHAPP	0.653 ± 0.07
RVVMIYAQWCLP	0.623 ± 0.011
GRRFIPFSSFIR	0.79 ± 0.096
VPYFRSMSSLSI	0.6347 ± 0.0039
VAIVGCVGKLIR	0.6468 ± 0.0036
ISCVLSTVGVGH	0.663 ± 0.044
NSDEYKVYGEKL	0.661 ± 0.015
RASWVRTLMSCQ	0.58161 ± 0.00022
GNHNGKIILDNR	0.679 ± 0.023

Sequence	protein stability index
TVGSLNSEIAGK	0.691 ± 0.057
PTATMLFLTRTG	0.702 ± 0.043
QARKGPISSCRP	0.664 ± 0.067
PPLVPPTPAFPP	0.623 ± 0.028
LQFSTSMGVLMV	0.591 ± 0.01
LVSWFWPFSFFA	0.661 ± 0.098
HDSRIDIASFHV	0.716 ± 0.024
FYYRYDRRTRCV	0.548 ± 0.012
GVAGGGTVVGAQ	0.693 ± 0.017
LLFLPRPPVCSR	0.649 ± 0.11
KTKRMKSIKKSK	0.7099 ± 0.0046
RLGCGFGGGEEV	0.674 ± 0.032
HPRLLLYLPTSS	0.726 ± 0.1
PPYPPTPHQTSH	0.641 ± 0.034
VGVFDGAVFSWC	0.726 ± 0.12
PPPVSLFSPRSL	0.781 ± 0.099
KRKKQERKREKK	0.692 ± 0.05
SDSPSAPPSAYH	0.62 ± 0.058
KKKFNNFIKIIH	0.631 ± 0.027
PHHRRVVRPPTA	0.704 ± 0.013
FPIWYPSSSFPR	0.711 ± 0.013
PPPPPPPHPPHL	0.728 ± 0.031
LLPPAPLPPSLG	0.722 ± 0.016
TSFNQCRVFCRT	0.614 ± 0.049
LGGGAGAPPSHW	0.7 ± 0.024
RERLSRGGEGFE	0.693 ± 0.021

Sequence	protein stability index
SPRSLLTPHPHM	0.686 ± 0.041
VIILRWCRVDGF	0.565 ± 0.031
PRPPLPSLHLSP	0.679 ± 0.024
GLTSRIAAGRQR	0.696 ± 0.022
KKTKNKKRIIRT	0.724 ± 0.051
VRATNLSSVGIF	0.619 ± 0.011
GTLLRINLMTIQ	0.663 ± 0.02
PRPTPPHPPITR	0.824 ± 0.027
PRLIESYRPITS	0.715 ± 0.09
FFRYWLRWGWGV	0.695 ± 0.039
LTSGTVLVLSSL	0.683 ± 0.03
AAGGPGGPELWG	0.749 ± 0.14
PPAPPHLPPLPR	0.71574 ± 0.00046
LSASALEFSSPP	0.699 ± 0.0069
FCALWASFFGVS	0.715 ± 0.048
ARRGGRKRPGAV	0.631 ± 0.056
AGGLGGSILCLV	0.556 ± 0.025
CRGGRHFSREKF	0.723 ± 0.036
LQSPGAFFSVSK	0.7 ± 0.018
VGNGGVWSVGRG	0.685 ± 0.038
CRVALSRGVSLV	0.65 ± 0.0094
RPGNIRNNKKKK	0.688 ± 0.021
GGMRGGYRGRCV	0.679 ± 0.039
CRWLLWVDGWRV	0.5838 ± 0.0043
LSWSLSSFACEM	0.65 ± 0.014
TYSTDRPGLHTW	0.698 ± 0.074

Sequence	protein stability index
PPFLPLPPPPLP	0.731 ± 0.015
GQWCVAAALIER	0.699 ± 0.1
RGAKKMNHRGRS	0.675 ± 0.052
GLRLCLSMWLRD	0.633 ± 0.054
PFFPVALPFPHL	0.7 ± 0.021
WACYRLGCGGSW	0.774 ± 0.041
HHQVVPDVSLVS	0.6585 ± 0.0013
LEKKRRKNKKEG	0.787 ± 0.14
PPPPPPSPPLSP	0.677 ± 0.028
LRPPLPPPCPPP	0.599 ± 0.12
KRKKKKEQTKKK	0.752 ± 0.11
DSMLTYIRSTKD	0.633 ± 0.007
RFFYGGRRTQQT	0.753 ± 0.058
AILPFGLLPTHR	0.745 ± 0.017
KKKKKKDQKNKK	0.734 ± 0.057
GGVVGASMSGTP	0.683 ± 0.023
RAGHREIARQKG	0.6307 ± 0.0013
LPYSPPSLTLPR	0.666 ± 0.086
HWPSGGGGPASH	0.753 ± 0.037
TPPPFRLPAPSL	0.71 ± 0.037
IEGEVRKIGNPT	0.681 ± 0.086
TFLPAPSPTSPP	0.724 ± 0.032
GDGQETEKNNAE	0.604 ± 0.046
WSLGRRKLLHRI	0.666 ± 0.064
SGEVMGAMVLHE	0.773 ± 0.12
PPPVAPRSPAHL	0.713 ± 0.074

Sequence	protein stability index
PSFVRTVPSPCP	0.658 ± 0.011
SGVCGRVGGGLR	0.622 ± 0.047
RIAAVRVEGRDD	0.708 ± 0.026
KRMKNELDIGMK	0.7049 ± 0.0032
RTSLGFSPLIHQ	0.6818 ± 0.0057
GEAASEKKQEAG	0.644 ± 0.084
LQWAAGLRTTSP	0.692 ± 0.071
TLSHPAHLKPMR	0.669 ± 0.051
QEMMRGVVGGNW	0.715 ± 0.033
ILSMSQPHPILS	0.6175 ± 0.0042
GEGCPAGGHGCE	0.6864 ± 0.0063
KENIRPSESYKC	0.668 ± 0.05
ISWLLSFLGVVF	0.601 ± 0.046
IGSRRMDADERV	0.691 ± 0.026
RPRGRGRSRGDT	0.633 ± 0.037
VPRLPPSPPPLP	0.779 ± 0.076
TSSHLLFISSMI	0.638 ± 0.034
SPSPRLSFFLPS	0.727 ± 0.026
LSSLHFRFLSAG	0.62 ± 0.062
EKKKSCIMILRK	0.701 ± 0.039
PPPPRPPPPATL	0.662 ± 0.02
PLPAPPTPPLPP	0.763 ± 0.039
PLPRSPRPSAPP	0.622 ± 0.034
GWEVGRGRLGVV	0.696 ± 0.095
TGREWCFERGCW	0.842 ± 0.14
MNRHLHFLSPET	0.648 ± 0.031

Sequence	protein stability index
LSLCYCALTSSN	0.541 ± 0.0097
SPPPLPLPPPAP	0.695 ± 0.013
RNNIKIKNTQQN	0.759 ± 0.045
PPPSPLPSPPPP	0.5916 ± 0.0031
RGRAGPVVRELT	0.646 ± 0.097
GVRGGRGQGWYR	0.6373 ± 0.0018
RDRGWSRGRQVH	0.662 ± 0.015
TAVPPLFARTWQ	0.6786 ± 0.0049
DRWIGLWGGLWV	0.63 ± 0.018
VGVAGGRGEEEL	0.735 ± 0.019
VSLVLESFFGRV	0.719 ± 0.014
RLVCLVTQSVPH	0.613 ± 0.021
APPPSPPALVLP	0.641 ± 0.026
NKILIKKEQEEI	0.64356 ± 0.00045
GSCTPLPSIDFD	0.648 ± 0.052
ATCSILPSRLSI	0.6124 ± 0.0011
AREGSRGVDVGV	0.629 ± 0.01
PPPLASLSPASP	0.624 ± 0.05
AGGAGGCRGWSI	0.705 ± 0.018
SWPSLDLVSRMQ	0.676 ± 0.038
PLRESSTRPSLL	0.684 ± 0.055
LPPPPPPPPLLP	0.696 ± 0.0022
PPPLLPPHPPGL	0.701 ± 0.0096
GGRWNRNSGRGG	0.693 ± 0.021
IGNKLSKMIDTS	0.665 ± 0.053
ITSITRFKVDSR	0.628 ± 0.022

Sequence	protein stability index
LRVGGKRREVMG	0.709 ± 0.055
AHYGSNNNGLVF	0.695 ± 0.042
ISLTHAPKTGFY	0.695 ± 0.008
LPPLPLRSLSSP	0.746 ± 0.025
KESLKDRTKINI	0.692 ± 0.033
AVWSLMRCREFV	0.652 ± 0.028
PLPRLRRPAPPH	0.667 ± 0.055
LSVFDTSLFFSS	0.787 ± 0.099
QFIFSRGGLPVL	0.7351 ± 0.0015
HNGRAARAYLCW	0.65 ± 0.046
VQTYVRARVDRL	0.711 ± 0.024
STVSRHPSSPLP	0.737 ± 0.039
GFCRKESVRCEK	0.683 ± 0.018
PLRDHPAPPHRL	0.665 ± 0.068
FRGGCDRIRYRM	0.696 ± 0.0089
RNIRINKKVKDI	0.594 ± 0.032
SPTLNRSLPVPS	0.654 ± 0.045
DQRLKKKTVQMK	0.778 ± 0.076
SPPPISIYPPFR	0.668 ± 0.024
ACPLPPLPTPLP	0.736 ± 0.04

Source: the supplement of paper PMC10724198
